In article PMC9628839, “Structure Based Protein Engineering of Aldehyde Dehydrogenase from Azospirillum brasilense to Enhance Enzyme Activity against Unnatural 3-Hydroxypropionaldehyde” (Journal of Microbiology and Biotechnology, 2021):

B1: AbKGSADH (Azospirillum brasilense; P444F) (protein)
chain: ANVTYTDTQLLIDGEWVDAASGKTIDVVNPATGKPIGRVAHAGIADLDRALAAAQSGFEAWRKVPAHERAATMRKAAALVRERADAIAQLMTQEQGKPLTEARVEVLSAADIIEWFADEGRRVYGRIVPPRNLGAQQTVVKEPVGPVAAFTPWNFPVNQVVRKLSAALATGCSFLVKAPEETPASPAALLRAFVDAGVPAGVIGLVYGDPAEISSYLIPHPVIRKVTFTGSTPVGKQLASLAGLHMKRATMELGGHAPVIVAEDADVALAVKAAGGAKFRNAGQVCISPTRFLVHNSIRDEFTRALVKHAEGLKVGNGLEEGTTLGALANPRRLTAMASVIDNARKVGASIETGGERIGSEGNFFAPTVIANVPLDADVFNNEPFGPVAAIRGFDKLEEAIAEANRLPFGLAGYAFTRSFANVHLLTQRLEVGMLWINQPATFWPEMPFGGVKDSGYGSEGGPEALEPYLVTKSVTVMAV
B2: AbKGSADH (Azospirillum brasilense; I288T) (protein)
chain: ANVTYTDTQLLIDGEWVDAASGKTIDVVNPATGKPIGRVAHAGIADLDRALAAAQSGFEAWRKVPAHERAATMRKAAALVRERADAIAQLMTQEQGKPLTEARVEVLSAADIIEWFADEGRRVYGRIVPPRNLGAQQTVVKEPVGPVAAFTPWNFPVNQVVRKLSAALATGCSFLVKAPEETPASPAALLRAFVDAGVPAGVIGLVYGDPAEISSYLIPHPVIRKVTFTGSTPVGKQLASLAGLHMKRATMELGGHAPVIVAEDADVALAVKAAGGAKFRNAGQVCTSPTRFLVHNSIRDEFTRALVKHAEGLKVGNGLEEGTTLGALANPRRLTAMASVIDNARKVGASIETGGERIGSEGNFFAPTVIANVPLDADVFNNEPFGPVAAIRGFDKLEEAIAEANRLPFGLAGYAFTRSFANVHLLTQRLEVGMLWINQPATPWPEMPFGGVKDSGYGSEGGPEALEPYLVTKSVTVMAV
B3: AbKGSADH (Azospirillum brasilense; R281Q) (protein)
chain: ANVTYTDTQLLIDGEWVDAASGKTIDVVNPATGKPIGRVAHAGIADLDRALAAAQSGFEAWRKVPAHERAATMRKAAALVRERADAIAQLMTQEQGKPLTEARVEVLSAADIIEWFADEGRRVYGRIVPPRNLGAQQTVVKEPVGPVAAFTPWNFPVNQVVRKLSAALATGCSFLVKAPEETPASPAALLRAFVDAGVPAGVIGLVYGDPAEISSYLIPHPVIRKVTFTGSTPVGKQLASLAGLHMKRATMELGGHAPVIVAEDADVALAVKAAGGAKFQNAGQVCISPTRFLVHNSIRDEFTRALVKHAEGLKVGNGLEEGTTLGALANPRRLTAMASVIDNARKVGASIETGGERIGSEGNFFAPTVIANVPLDADVFNNEPFGPVAAIRGFDKLEEAIAEANRLPFGLAGYAFTRSFANVHLLTQRLEVGMLWINQPATPWPEMPFGGVKDSGYGSEGGPEALEPYLVTKSVTVMAV
B4: AbKGSADH (Azospirillum brasilense) (protein)
chain: ANVTYTDTQLLIDGEWVDAASGKTIDVVNPATGKPIGRVAHAGIADLDRALAAAQSGFEAWRKVPAHERAATMRKAAALVRERADAIAQLMTQEQGKPLTEARVEVLSAADIIEWFADEGRRVYGRIVPPRNLGAQQTVVKEPVGPVAAFTPWNFPVNQVVRKLSAALATGCSFLVKAPEETPASPAALLRAFVDAGVPAGVIGLVYGDPAEISSYLIPHPVIRKVTFTGSTPVGKQLASLAGLHMKRATMELGGHAPVIVAEDADVALAVKAAGGAKFRNAGQVCISPTRFLVHNSIRDEFTRALVKHAEGLKVGNGLEEGTTLGALANPRRLTAMASVIDNARKVGASIETGGERIGSEGNFFAPTVIANVPLDADVFNNEPFGPVAAIRGFDKLEEAIAEANRLPFGLAGYAFTRSFANVHLLTQRLEVGMLWINQPATPWPEMPFGGVKDSGYGSEGGPEALEPYLVTKSVTVMAV
B5: AbKGSADH (Azospirillum brasilense; R281F) (protein)
chain: ANVTYTDTQLLIDGEWVDAASGKTIDVVNPATGKPIGRVAHAGIADLDRALAAAQSGFEAWRKVPAHERAATMRKAAALVRERADAIAQLMTQEQGKPLTEARVEVLSAADIIEWFADEGRRVYGRIVPPRNLGAQQTVVKEPVGPVAAFTPWNFPVNQVVRKLSAALATGCSFLVKAPEETPASPAALLRAFVDAGVPAGVIGLVYGDPAEISSYLIPHPVIRKVTFTGSTPVGKQLASLAGLHMKRATMELGGHAPVIVAEDADVALAVKAAGGAKFFNAGQVCISPTRFLVHNSIRDEFTRALVKHAEGLKVGNGLEEGTTLGALANPRRLTAMASVIDNARKVGASIETGGERIGSEGNFFAPTVIANVPLDADVFNNEPFGPVAAIRGFDKLEEAIAEANRLPFGLAGYAFTRSFANVHLLTQRLEVGMLWINQPATPWPEMPFGGVKDSGYGSEGGPEALEPYLVTKSVTVMAV
B6: AbKGSADH (Azospirillum brasilense; P444S) (protein)
chain: ANVTYTDTQLLIDGEWVDAASGKTIDVVNPATGKPIGRVAHAGIADLDRALAAAQSGFEAWRKVPAHERAATMRKAAALVRERADAIAQLMTQEQGKPLTEARVEVLSAADIIEWFADEGRRVYGRIVPPRNLGAQQTVVKEPVGPVAAFTPWNFPVNQVVRKLSAALATGCSFLVKAPEETPASPAALLRAFVDAGVPAGVIGLVYGDPAEISSYLIPHPVIRKVTFTGSTPVGKQLASLAGLHMKRATMELGGHAPVIVAEDADVALAVKAAGGAKFRNAGQVCISPTRFLVHNSIRDEFTRALVKHAEGLKVGNGLEEGTTLGALANPRRLTAMASVIDNARKVGASIETGGERIGSEGNFFAPTVIANVPLDADVFNNEPFGPVAAIRGFDKLEEAIAEANRLPFGLAGYAFTRSFANVHLLTQRLEVGMLWINQPATSWPEMPFGGVKDSGYGSEGGPEALEPYLVTKSVTVMAV
B7: AbKGSADH (Azospirillum brasilense; S109G) (protein)
chain: ANVTYTDTQLLIDGEWVDAASGKTIDVVNPATGKPIGRVAHAGIADLDRALAAAQSGFEAWRKVPAHERAATMRKAAALVRERADAIAQLMTQEQGKPLTEARVEVLGAADIIEWFADEGRRVYGRIVPPRNLGAQQTVVKEPVGPVAAFTPWNFPVNQVVRKLSAALATGCSFLVKAPEETPASPAALLRAFVDAGVPAGVIGLVYGDPAEISSYLIPHPVIRKVTFTGSTPVGKQLASLAGLHMKRATMELGGHAPVIVAEDADVALAVKAAGGAKFRNAGQVCISPTRFLVHNSIRDEFTRALVKHAEGLKVGNGLEEGTTLGALANPRRLTAMASVIDNARKVGASIETGGERIGSEGNFFAPTVIANVPLDADVFNNEPFGPVAAIRGFDKLEEAIAEANRLPFGLAGYAFTRSFANVHLLTQRLEVGMLWINQPATPWPEMPFGGVKDSGYGSEGGPEALEPYLVTKSVTVMAV
B8: AbKGSADH (Azospirillum brasilense; R281Y) (protein)
chain: ANVTYTDTQLLIDGEWVDAASGKTIDVVNPATGKPIGRVAHAGIADLDRALAAAQSGFEAWRKVPAHERAATMRKAAALVRERADAIAQLMTQEQGKPLTEARVEVLSAADIIEWFADEGRRVYGRIVPPRNLGAQQTVVKEPVGPVAAFTPWNFPVNQVVRKLSAALATGCSFLVKAPEETPASPAALLRAFVDAGVPAGVIGLVYGDPAEISSYLIPHPVIRKVTFTGSTPVGKQLASLAGLHMKRATMELGGHAPVIVAEDADVALAVKAAGGAKFYNAGQVCISPTRFLVHNSIRDEFTRALVKHAEGLKVGNGLEEGTTLGALANPRRLTAMASVIDNARKVGASIETGGERIGSEGNFFAPTVIANVPLDADVFNNEPFGPVAAIRGFDKLEEAIAEANRLPFGLAGYAFTRSFANVHLLTQRLEVGMLWINQPATPWPEMPFGGVKDSGYGSEGGPEALEPYLVTKSVTVMAV
B9: AbKGSADH (Azospirillum brasilense; P444L) (protein)
chain: ANVTYTDTQLLIDGEWVDAASGKTIDVVNPATGKPIGRVAHAGIADLDRALAAAQSGFEAWRKVPAHERAATMRKAAALVRERADAIAQLMTQEQGKPLTEARVEVLSAADIIEWFADEGRRVYGRIVPPRNLGAQQTVVKEPVGPVAAFTPWNFPVNQVVRKLSAALATGCSFLVKAPEETPASPAALLRAFVDAGVPAGVIGLVYGDPAEISSYLIPHPVIRKVTFTGSTPVGKQLASLAGLHMKRATMELGGHAPVIVAEDADVALAVKAAGGAKFRNAGQVCISPTRFLVHNSIRDEFTRALVKHAEGLKVGNGLEEGTTLGALANPRRLTAMASVIDNARKVGASIETGGERIGSEGNFFAPTVIANVPLDADVFNNEPFGPVAAIRGFDKLEEAIAEANRLPFGLAGYAFTRSFANVHLLTQRLEVGMLWINQPATLWPEMPFGGVKDSGYGSEGGPEALEPYLVTKSVTVMAV
B10: AbKGSADH (Azospirillum brasilense; P444G) (protein)
chain: ANVTYTDTQLLIDGEWVDAASGKTIDVVNPATGKPIGRVAHAGIADLDRALAAAQSGFEAWRKVPAHERAATMRKAAALVRERADAIAQLMTQEQGKPLTEARVEVLSAADIIEWFADEGRRVYGRIVPPRNLGAQQTVVKEPVGPVAAFTPWNFPVNQVVRKLSAALATGCSFLVKAPEETPASPAALLRAFVDAGVPAGVIGLVYGDPAEISSYLIPHPVIRKVTFTGSTPVGKQLASLAGLHMKRATMELGGHAPVIVAEDADVALAVKAAGGAKFRNAGQVCISPTRFLVHNSIRDEFTRALVKHAEGLKVGNGLEEGTTLGALANPRRLTAMASVIDNARKVGASIETGGERIGSEGNFFAPTVIANVPLDADVFNNEPFGPVAAIRGFDKLEEAIAEANRLPFGLAGYAFTRSFANVHLLTQRLEVGMLWINQPATGWPEMPFGGVKDSGYGSEGGPEALEPYLVTKSVTVMAV
B11: AbKGSADH (Azospirillum brasilense; S109L) (protein)
chain: ANVTYTDTQLLIDGEWVDAASGKTIDVVNPATGKPIGRVAHAGIADLDRALAAAQSGFEAWRKVPAHERAATMRKAAALVRERADAIAQLMTQEQGKPLTEARVEVLLAADIIEWFADEGRRVYGRIVPPRNLGAQQTVVKEPVGPVAAFTPWNFPVNQVVRKLSAALATGCSFLVKAPEETPASPAALLRAFVDAGVPAGVIGLVYGDPAEISSYLIPHPVIRKVTFTGSTPVGKQLASLAGLHMKRATMELGGHAPVIVAEDADVALAVKAAGGAKFRNAGQVCISPTRFLVHNSIRDEFTRALVKHAEGLKVGNGLEEGTTLGALANPRRLTAMASVIDNARKVGASIETGGERIGSEGNFFAPTVIANVPLDADVFNNEPFGPVAAIRGFDKLEEAIAEANRLPFGLAGYAFTRSFANVHLLTQRLEVGMLWINQPATPWPEMPFGGVKDSGYGSEGGPEALEPYLVTKSVTVMAV

What follows are proteins tested on O=CCCO (assay: purified protein). Conditions: 500 μM NAD, 100 mM Tris-HCl pH 8.0, 25 °C, 50 nM enzyme, 0.5-10 mM 3HPA.
Assay type: biochemical, Azospirillum brasilense
B1 was tested, and the Km was 4.714 ± 0.547 mM, the kcat was 19.5 ± 1.04 s⁻¹ and the kcat/Km was 4140 M⁻¹ s⁻¹. Protein B2 has a Km of 4.593 ± 2.814 mM, a kcat of 6.12 ± 1.69 s⁻¹ and a kcat/Km of 1330 M⁻¹ s⁻¹. B3 was tested, and the Km was 5.764 ± 1.462 mM, the kcat was 31.5 ± 3.94 s⁻¹ and the kcat/Km was 5470 M⁻¹ s⁻¹. Protein B4 has a Km of 4.581 ± 0.921 mM, a kcat of 21.5 ± 1.99 s⁻¹ and a kcat/Km of 4700 M⁻¹ s⁻¹. B5 showed a Km of 3.808 ± 0.728 mM, a kcat of 21.9 ± 1.8 s⁻¹ and a kcat/Km of 5760 M⁻¹ s⁻¹. Protein B6 has a Km of 4.690 ± 2.996 mM, a kcat of 17.3 ± 5.1 s⁻¹ and a kcat/Km of 3700 M⁻¹ s⁻¹. With B7 the Km was 1.646 ± 0.726 mM, the kcat was 6 ± 0.877 s⁻¹ and the kcat/Km was 3640 M⁻¹ s⁻¹. B8 showed a Km of 2.338 ± 0.372 mM, a kcat of 26.6 ± 1.56 s⁻¹ and a kcat/Km of 11400 M⁻¹ s⁻¹. In the case of B9, the Km is reported as 4.204 ± 1.184 mM, the kcat is reported as 18.8 ± 2.36 s⁻¹ and the kcat/Km is reported as 4480 M⁻¹ s⁻¹. For B10, the Km was 3.512 ± 2.070 mM, the kcat was 6.59 ± 1.58 s⁻¹ and the kcat/Km was 1880 M⁻¹ s⁻¹. B11 was tested, and the Km was 4.156 ± 1.377 mM, the kcat was 17 ± 2.5 s⁻¹ and the kcat/Km was 4100 M⁻¹ s⁻¹.
